According to patent US20250297004A1, “NECTIN-4 BINDING AGENTS” (INNATE PHARMA, priority 2022, published 2025):

Assays:
[1] = biological target: T1, cynomolgus Nectin-4 protein expressed on CHO cells (cynomolgus, UniProt Q96NY8 32-510 (human entry)); experiment: flow cytometry on CHO cells expressing cynomolgus Nectin-4, Median MFI (PE)
T1 construct: also called Cyno Nectin-4 V5
T1 chain: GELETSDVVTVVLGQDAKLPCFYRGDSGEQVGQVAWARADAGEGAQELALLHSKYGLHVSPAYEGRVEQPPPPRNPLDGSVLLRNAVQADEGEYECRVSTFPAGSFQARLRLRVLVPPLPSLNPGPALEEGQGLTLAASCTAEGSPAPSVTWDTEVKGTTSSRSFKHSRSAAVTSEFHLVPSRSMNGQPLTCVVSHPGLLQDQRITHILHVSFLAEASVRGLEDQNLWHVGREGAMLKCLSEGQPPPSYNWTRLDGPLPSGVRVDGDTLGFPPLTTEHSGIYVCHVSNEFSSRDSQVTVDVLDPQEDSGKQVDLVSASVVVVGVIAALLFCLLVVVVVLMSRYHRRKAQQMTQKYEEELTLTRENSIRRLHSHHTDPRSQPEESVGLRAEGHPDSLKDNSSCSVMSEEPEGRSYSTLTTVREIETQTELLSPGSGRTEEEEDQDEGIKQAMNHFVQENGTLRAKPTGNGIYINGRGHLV
Method: Anti-Nectin-4 antibodies were tested by flow cytometry for binding to different CHO cell lines made to express respectively the mouse, cynomolgus and rat Nectin-4 protein (including an N-terminal V5 tag not shown in the sequences below).

[2] = biological target: T2, human Nectin-4 expressed on cells (human, UniProt Q96NY8 32-510); experiment: flow cytometry on SUM190 cells, MedFI at saturation
T2 construct: On SUM190, SUM185, MDA-MB-468 cells (endogenous) or transfected cells; 31-residue signal peptide left out; also called huN4; wild-type human Nectin-4
T2 sequence: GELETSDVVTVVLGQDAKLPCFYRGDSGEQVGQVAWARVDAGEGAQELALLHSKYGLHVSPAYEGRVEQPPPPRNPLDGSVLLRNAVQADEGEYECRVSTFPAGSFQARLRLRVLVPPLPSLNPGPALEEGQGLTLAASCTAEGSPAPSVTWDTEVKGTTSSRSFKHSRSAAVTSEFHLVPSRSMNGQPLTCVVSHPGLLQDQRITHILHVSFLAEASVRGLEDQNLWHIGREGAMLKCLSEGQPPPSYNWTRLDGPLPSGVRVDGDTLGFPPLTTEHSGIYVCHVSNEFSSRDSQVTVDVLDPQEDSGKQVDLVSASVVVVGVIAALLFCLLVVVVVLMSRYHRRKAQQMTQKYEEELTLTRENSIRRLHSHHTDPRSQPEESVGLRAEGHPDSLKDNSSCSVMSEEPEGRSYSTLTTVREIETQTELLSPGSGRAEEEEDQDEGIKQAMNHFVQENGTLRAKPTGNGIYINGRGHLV
Method: The humanized antibodies in Table 3 of Example 3 and in Table 6 of Example 5 were cloned, produced and purified, then tested for binding to Nectin-4 expressing cells by flow cytometry. Binding of humanized variants in human IgG1 format was determined on the SUM190 cell line expressing high levels of Nectin-4.

[3] = biological target: human Nectin-4 (protein used in the SPR affinity measurements) (human) (UniProt Q96NY8); experiment: SPR
[4] = biological target: T3, human Nectin-4 Mutant 1 (human, UniProt Q96NY8 32-510); experiment: binding to HEK293T cells expressing Nectin-4 mutant
T3 construct: Expressed on transfected HEK293T cells; also called S58P/G59D/Q61A/N106D/P107A
T3 chain: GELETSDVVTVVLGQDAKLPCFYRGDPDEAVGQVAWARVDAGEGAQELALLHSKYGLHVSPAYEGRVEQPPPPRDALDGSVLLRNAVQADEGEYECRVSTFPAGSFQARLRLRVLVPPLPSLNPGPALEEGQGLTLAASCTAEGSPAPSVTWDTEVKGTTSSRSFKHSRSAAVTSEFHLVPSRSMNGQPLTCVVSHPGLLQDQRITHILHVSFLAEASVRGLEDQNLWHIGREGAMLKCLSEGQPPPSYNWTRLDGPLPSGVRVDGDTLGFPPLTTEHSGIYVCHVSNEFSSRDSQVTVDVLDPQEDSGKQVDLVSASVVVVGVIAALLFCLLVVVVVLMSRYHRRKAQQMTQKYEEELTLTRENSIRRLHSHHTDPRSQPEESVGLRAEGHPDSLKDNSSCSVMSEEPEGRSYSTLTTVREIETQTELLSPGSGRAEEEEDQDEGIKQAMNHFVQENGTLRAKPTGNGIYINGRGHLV

EC50 (read off the curve) [1]: ~0.03 µg/mL
Max MedFi [2]: 25200 MedFI
Kd [3]: 5.9 nM
koff [3]: 0.0027 s⁻¹
kon [3]: 480000 M⁻¹ s⁻¹
binding result [4]: binds
B1: chimeric parental 5E7 antibody (antibody, V domains shown)
VH: QVQLQQPGAELVKPGASVKLSCKASGYIFTSYWMHWVKQRPGQGLEWIGEIDPSDSYTNYNQKFKGKATLTLDKSSSTTYMQLSSLTSEDSAVYYCVRGYGNYGDYWGQGTTLTVSS
VL: DVVMTQAAFSNPVTLGTSASISCRSSKSLLHSNGITYLYWYLQKPGQSPQLLIYQMSNLASGVPDRFSSSGSGTDFTLRISRVEAEDVGVYYCAQNLELPWTFGGGTKLEIKR
notes: Chimeric antibody, murine variable domains with human constant regions; also called ch5E7; CHG1-M-1N4-5E7
